Experimental findings from US20220372155A1 (LYVGEN BIOPHARMA, published 2022) are described below.

The target of this assay is T1, human CD40 expressed on CHO cells (human, UniProt P25942 21-277).
T1 construct: whole, on cells; also used for the reporter cells over-expressing human CD40; also called cellular CD40; CHO-CD40 cells
Description: FACS, CHO cells. For orientation: Flow cytometry measures light scatter and fluorescence of single cells or particles in a stream.

T1 sequence (P25942 21-277): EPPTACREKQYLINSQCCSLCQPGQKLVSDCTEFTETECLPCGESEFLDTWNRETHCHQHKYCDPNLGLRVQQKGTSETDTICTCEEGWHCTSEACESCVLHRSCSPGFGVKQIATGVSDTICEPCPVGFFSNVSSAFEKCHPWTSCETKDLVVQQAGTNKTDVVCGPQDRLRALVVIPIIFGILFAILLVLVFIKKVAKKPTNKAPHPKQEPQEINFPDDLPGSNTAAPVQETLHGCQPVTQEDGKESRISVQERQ

B1: Ly801 (bispecific antibody, human IgG1, kappa)
heavy: EVQLQQSGPELVKPGASVKMSCKASGYTFTSYVMHWVKQKPGQGLEWIGYINPYNDGTECTDKFKGKATLTSDKSSSTAYMELSSLTSEDSAVYYCASIYYGYDGTYFGVWGAGTSVTVSSASTKGPSVFPLAPSSKSTSGGTAALGCLVKDYFPEPVTVSWNSGALTSGVHTFPAVLQSSGLYSLSSVVTVPSSSLGTQTYICNVNHKPSNTKVDKKVEPKSCDKTHTCPPCPAPELLGPSVFLFPPKPKDTLMISRTPEVTCVVVDVSHEDPEVKFNWYVDGVEVHNAKTKPREEQYNSTYRVVSVLTVLHQDWLNGKEYKCKVSNKALPAPIEKTISKAKGQPREPQVYTLPPSREEMTKNQVSLTCLVKGFYPSDIAVEWESNGQPENNYKTTPPVLDSDGSFFLYSKLTVDKSRWQQGNVFSCSVMHEALHNHYTQKSLSLSPG
light: QIVLSQSPAILSTSPGEKVTMTCRASSSVSYMHWYQQKPGSSPKPWIYATSNLASGVPARFSGSRSGTSYSLTISRVEAEDAATYYCQQWSSNTLTFGGGTKLELKRTVAAPSVFIFPPSDEQLKSGTASVVCLLNNFYPREAKVQWKVDNALQSGNSQESVTEQDSKDSTYSLSSTLTLSKADYEKHKVYACEVTHQGLSSPVTKSFNRGECGGGGSGGGGSGGGGSGGGGSDIQMTQSPSSLSASVGDRVTITCKASQNIYIYLNWYQQKPGKAPKLLIYNTNNLQTGVPSRFSGSGSGTDFTLTISSLQPEDFATYYCLQHSSRRTFGGGTKVEIKGGGGSGGGGSGGGGSGGGGSQVQLVESGGGLVQPGGSLKLSCATSGFNFNDYFMNWVRQASGKGLEWVGQIRNKNYNYATYYTESLEGRVTISRDDSKNTAYLQMNSLKTEDTAVYYCTSYYYDGFADYFDYWGQGTTVTVSS
notes: Ly383 HC (IgG1 mutated Fc) + Ly383 LC-TM740 scFv VL-VH
For the molecule B1, the binding result is “binds”.

B2: Ly802 (bispecific antibody, human IgG1, kappa)
heavy: B1 heavy
light: QIVLSQSPAILSTSPGEKVTMTCRASSSVSYMHWYQQKPGSSPKPWIYATSNLASGVPARFSGSRSGTSYSLTISRVEAEDAATYYCQQWSSNTLTFGGGTKLELKRTVAAPSVFIFPPSDEQLKSGTASVVCLLNNFYPREAKVQWKVDNALQSGNSQESVTEQDSKDSTYSLSSTLTLSKADYEKHKVYACEVTHQGLSSPVTKSFNRGECGGGGSGGGGSGGGGSGGGGSQVQLVESGGGLVQPGGSLKLSCATSGFNFNDYFMNWVRQASGKGLEWVGQIRNKNYNYATYYTESLEGRVTISRDDSKNTAYLQMNSLKTEDTAVYYCTSYYYDGFADYFDYWGQGTTVTVSSGGGGSGGGGSGGGGSGGGGSDIQMTQSPSSLSASVGDRVTITCKASQNIYIYLNWYQQKPGKAPKLLIYNTNNLQTGVPSRFSGSGSGTDFTLTISSLQPEDFATYYCLQHSSRRTFGGGTKVEIK
notes: Ly383 HC (IgG1 mutated Fc) + Ly383 LC-TM740 scFv VH-VL
Take B2: the binding result is “binds”.

B3: Ly804 (bispecific antibody, human IgG1, kappa)
heavy: B1 heavy
light: QIVLSQSPAILSTSPGEKVTMTCRASSSVSYMHWYQQKPGSSPKPWIYATSNLASGVPARFSGSRSGTSYSLTISRVEAEDAATYYCQQWSSNTLTFGGGTKLELKRTVAAPSVFIFPPSDEQLKSGTASVVCLLNNFYPREAKVQWKVDNALQSGNSQESVTEQDSKDSTYSLSSTLTLSKADYEKHKVYACEVTHQGLSSPVTKSFNRGECGGGGSGGGGSGGGGSGGGGSEVQLVESGGGLVQPGGSLRLSCAASGFTFTNYGLHWVRQAPGKGLEWVSSISPSGGVTYYRDSVKGRFTISRDNSKNTLYLQMNSLRAEDTAVYYCAKPFLGWGGANWIAHWGQGTLVTVSSGGGGSGGGGSGGGGSGGGGSDIQMTQSPSSLSASVGDRVTITCLASEDISNDLAWYQQKPGKAPKLLIYFVDRLLDGVPSRFSGSGSGTDFTLTISSLQPEDFATYYCQQSYKYPPTFGQGTKLEIK
notes: Ly383 HC (IgG1 mutated Fc) + Ly383 LC-TM559 scFv VH-VL
With B3, the binding result was “binds”.

B4: Ly803 (bispecific antibody, human IgG1, kappa)
heavy: B1 heavy
light: QIVLSQSPAILSTSPGEKVTMTCRASSSVSYMHWYQQKPGSSPKPWIYATSNLASGVPARFSGSRSGTSYSLTISRVEAEDAATYYCQQWSSNTLTFGGGTKLELKRTVAAPSVFIFPPSDEQLKSGTASVVCLLNNFYPREAKVQWKVDNALQSGNSQESVTEQDSKDSTYSLSSTLTLSKADYEKHKVYACEVTHQGLSSPVTKSFNRGECGGGGSGGGGSGGGGSGGGGSDIQMTQSPSSLSASVGDRVTITCLASEDISNDLAWYQQKPGKAPKLLIYFVDRLLDGVPSRFSGSGSGTDFTLTISSLQPEDFATYYCQQSYKYPPTFGQGTKLEIKGGGGSGGGGSGGGGSGGGGSEVQLVESGGGLVQPGGSLRLSCAASGFTFTNYGLHWVRQAPGKGLEWVSSISPSGGVTYYRDSVKGRFTISRDNSKNTLYLQMNSLRAEDTAVYYCAKPFLGWGGANWIAHWGQGTLVTVSS
notes: Ly383 HC (IgG1 mutated Fc) + Ly383 LC-TM559 scFv VL-VH
In the case of B4, the binding result is on record as “binds”.

B5: Ly473 (bispecific antibody, human IgG1, kappa)
heavy: QVQLKESGPGLVAPSQSLSITCTVSGFSLTDYGVRWIRQPPGKGLEWLGVIWGGGSTYYNSALKSRLSISKDNSKSQVFLKMNSLQTDDTAMYYCAKEKRRGYYYAMDYWGQGTSVTVSSASTKGPSVFPLAPSSKSTSGGTAALGCLVKDYFPEPVTVSWNSGALTSGVHTFPAVLQSSGLYSLSSVVTVPSSSLGTQTYICNVNHKPSNTKVDKKVEPKSCDKTHTCPPCPAPELLGPSVFLFPPKPKDTLMISRTPEVTCVVVDVSHEDPEVKFNWYVDGVEVHNAKTKPREEQYNSTYRVVSVLTVLHQDWLNGKEYKCKVSNKALPAPIEKTISKAKGQPREPQVYTLPPSREEMTKNQVSLTCLVKGFYPSDIAVEWESNGQPENNYKTTPPVLDSDGSFFLYSKLTVDKSRWQQGNVFSCSVMHEALHNHYTQKSLSLSPG
light: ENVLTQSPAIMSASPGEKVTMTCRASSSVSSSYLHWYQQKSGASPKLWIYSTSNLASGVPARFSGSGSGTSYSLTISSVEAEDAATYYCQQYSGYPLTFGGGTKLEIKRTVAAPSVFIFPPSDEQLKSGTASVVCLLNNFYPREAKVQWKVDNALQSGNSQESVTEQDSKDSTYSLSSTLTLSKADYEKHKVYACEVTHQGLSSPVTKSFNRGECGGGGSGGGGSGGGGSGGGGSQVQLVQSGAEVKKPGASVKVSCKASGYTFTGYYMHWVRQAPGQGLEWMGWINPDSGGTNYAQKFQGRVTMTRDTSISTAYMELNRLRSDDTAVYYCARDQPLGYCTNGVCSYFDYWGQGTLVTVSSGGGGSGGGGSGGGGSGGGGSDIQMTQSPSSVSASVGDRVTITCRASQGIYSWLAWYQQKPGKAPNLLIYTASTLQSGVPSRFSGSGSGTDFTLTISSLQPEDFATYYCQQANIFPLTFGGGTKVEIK
notes: Ly368 HC + Ly368 LC-Ly253 scFv VH-VL
B5: the binding result is given as “binds”.

B6: Ly805 (bispecific antibody, human IgG1, kappa)
heavy: QVQLQQPGAELVKPGASVKLSCKASGYTFTSYWMHWVKQRPGQGLEWIGMIHPNSGGTNYNEKFKGKGTLTVDKSSSTAYMQLSSLTSDDSAVYYCVTSQATWFAYWGQGTLVTVSAASTKGPSVFPLAPSSKSTSGGTAALGCLVKDYFPEPVTVSWNSGALTSGVHTFPAVLQSSGLYSLSSVVTVPSSSLGTQTYICNVNHKPSNTKVDKKVEPKSCDKTHTCPPCPAPELLGPSVFLFPPKPKDTLMISRTPEVTCVVVDVSHEDPEVKFNWYVDGVEVHNAKTKPREEQYNSTYRVVSVLTVLHQDWLNGKEYKCKVSNKALPAPIEKTISKAKGQPREPQVYTLPPSREEMTKNQVSLTCLVKGFYPSDIAVEWESNGQPENNYKTTPPVLDSDGSFFLYSKLTVDKSRWQQGNVFSCSVMHEALHNHYTQKSLSLSPG
light: ENVLTQSPAIMSVSPGEKVTMTCRASSSVSSSYLHWYQQKSGASPKFWIYSTSNLASGVPARFSGSGSGTSYSLTISSVEAEDAATYYCQHYSGYPLTFGAGTKLELRRTVAAPSVFIFPPSDEQLKSGTASVVCLLNNFYPREAKVQWKVDNALQSGNSQESVTEQDSKDSTYSLSSTLTLSKADYEKHKVYACEVTHQGLSSPVTKSFNRGECGGGGSGGGGSGGGGSGGGGSDIQMTQSPSSLSASVGDRVTITCKASQNIYIYLNWYQQKPGKAPKLLIYNTNNLQTGVPSRFSGSGSGTDFTLTISSLQPEDFATYYCLQHSSRRTFGGGTKVEIKGGGGSGGGGSGGGGSGGGGSQVQLVESGGGLVQPGGSLKLSCATSGFNFNDYFMNWVRQASGKGLEWVGQIRNKNYNYATYYTESLEGRVTISRDDSKNTAYLQMNSLKTEDTAVYYCTSYYYDGFADYFDYWGQGTTVTVSS
notes: Ly387 HC (IgG1 mutated Fc) + Ly387 LC-TM740 scFv VL-VH
On to B6, for which the binding result is on record as “binds”.
